Source: US20240317872A1 (WUXI BIOLOGICS IRELAND, published 2024)
Numbering of substitutions follows the chain as printed. Names and notes keep the numbering of the source. One block for each binder: values may come before it.

Target: T1, Human PD-L1 (human, UniProt Q9NZQ7 19-290)
T1 construct: whole, on cells; also called target-A
Assay: flow cytometry on CHO-K1 cells expressing human PD-L1
Experimental: Human PD-L1-expressing cells W315-CHOK1.hPro1.C11 (×10^5 cells/well) and 4-1BB-expressing cells WBP342-CHO-K1.hPro1.C1 were incubated with various concentrations of testing antibodies at 4° C. for 1 hour. […] The cells were then washed and resuspended in DPBS with 1% BSA. MFI of the cells was measured by a flow cytometer and analyzed by FlowJo.
As shown in FIG. 7 and Table 7, compared to the reference molecule, the T8311 variants kept the target binding ability very well.

T1 sequence (Q9NZQ7 19-290): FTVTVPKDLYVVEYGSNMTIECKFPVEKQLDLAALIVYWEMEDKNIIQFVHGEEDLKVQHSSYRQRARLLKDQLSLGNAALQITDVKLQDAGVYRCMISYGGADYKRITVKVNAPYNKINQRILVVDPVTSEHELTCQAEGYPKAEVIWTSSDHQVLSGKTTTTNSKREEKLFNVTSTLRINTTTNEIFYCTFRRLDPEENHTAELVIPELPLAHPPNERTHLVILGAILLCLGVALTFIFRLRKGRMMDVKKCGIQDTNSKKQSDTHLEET

EC50: 0.184 nM
Top (MFI): 8330 MFI
B1: T8311-U14T2.G25R-1.uIgG1 (bispecific antibody)
heavy: not shown
light 1: SYELTQPPSVSVSPGQTASITCSGSELPKRYAYWYQQKPGQSIVRVIYKDSERPSGISERFSGSSSGNTATLTISGTQAMDEADYYCSSTYGDRKLPIFGGGTKLTVLGQPKAAPSVTLFPPSSEELQANKATLVCLISDFYPGAVTVAWKADSSPVKAGVETTTPSKQSNNKYAASSYLSLTPEQWKSHKSYSCQVTHEGSTVEKTVAPTECS
light 2: SYVLTQPPSVSVAPGQTARMTCGGDNIGIKIVHWYQQKAGQAPVLVVYDDNDRPSGIPDRFSGSNSGNTATLTISRVAAGDEADYYCQVWDRRSDHVVFGGGTKLTVLPDIQNPDPAVYQLRDSKSSDKSVCLFTDFDSQTQVSQSKDSDVYITDKCVLDMRSMDFKSNSAVAWSQKSDFACANAFQNSIIPEDTFFPSPESS
notes: Symmetric 2+2 format G25R, human IgG1 Fc; PD-L1 x 4-1BB; also called T8311-1

EC50: 0.23 nM
Top (MFI): 8120 MFI
B2: T8311-U14T2.G25R-54.uIgG1 (bispecific antibody)
heavy: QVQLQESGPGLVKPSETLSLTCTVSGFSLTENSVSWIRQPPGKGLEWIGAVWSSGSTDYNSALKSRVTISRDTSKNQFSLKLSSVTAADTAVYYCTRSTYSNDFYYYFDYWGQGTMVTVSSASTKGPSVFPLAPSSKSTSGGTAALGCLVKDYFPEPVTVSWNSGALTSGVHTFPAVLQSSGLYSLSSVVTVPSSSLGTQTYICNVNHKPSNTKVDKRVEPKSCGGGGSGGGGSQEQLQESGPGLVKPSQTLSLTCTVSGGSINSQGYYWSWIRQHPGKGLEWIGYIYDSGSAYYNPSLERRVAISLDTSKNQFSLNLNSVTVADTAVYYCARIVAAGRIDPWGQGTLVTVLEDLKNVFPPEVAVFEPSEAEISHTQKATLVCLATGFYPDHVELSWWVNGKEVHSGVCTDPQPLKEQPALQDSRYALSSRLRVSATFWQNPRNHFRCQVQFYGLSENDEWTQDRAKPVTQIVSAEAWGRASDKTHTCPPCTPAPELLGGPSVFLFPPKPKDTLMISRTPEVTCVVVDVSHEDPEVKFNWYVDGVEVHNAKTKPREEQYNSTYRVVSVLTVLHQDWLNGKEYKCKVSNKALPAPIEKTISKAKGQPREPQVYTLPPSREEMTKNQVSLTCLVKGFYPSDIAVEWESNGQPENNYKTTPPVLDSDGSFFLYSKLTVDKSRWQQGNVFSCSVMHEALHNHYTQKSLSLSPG
light 1: B1 light 1
light 2: SYVLTQPPSVSVAPGQTARMTCGGDNIGIKIVHWYQQKAGQAPVLVVYDDNDRPSGIPDRFSGSNSGNTATLTISRVAAGDEADYYCQVWDRRSDHVVFGGGTKLTVLPDIQNPDCAVYQLRDSKSSDKSVCLFTDFDSQTQVSQSKDSDVYITDKCVLDMRSMDFKSNSAVAWSQKSDFACANAFQNSIICEDTFFPS
notes: also called T8311-54

EC50: 0.186 nM
Top (MFI): 8110 MFI
B3: T8311-U14T2.G25R-47.uIgG1 (bispecific antibody)
heavy: not shown
light 1: B1 light 1
light 2: B2 light 2 with C116P, S144C, N188C, C192P
notes: also called T8311-47

EC50: 0.192 nM
Top (MFI): 8240 MFI
B4: T8311-U14T2.G25R-56.uIgG1 (bispecific antibody)
heavy: not shown
light 1: B1 light 1
light 2: B2 light 2 with C116P, T141C
notes: also called T8311-56

EC50: 0.256 nM
Top (MFI): 8130 MFI
B5: T8311-U14T2.G25R-50.uIgG1 (bispecific antibody)
heavy: not shown
light 1: B1 light 1
light 2: B2 light 2 with C116P, Q142C, S189C, C192P
notes: also called T8311-50

EC50: 0.19 nM
Top (MFI): 7990 MFI
B6: T8311-U14T2.G25R-58.uIgG1 (bispecific antibody)
heavy: not shown
light 1: B1 light 1
light 2: B2 light 2 with C192P, T195C
notes: also called T8311-58

EC50: 0.215 nM
Top (MFI): 7860 MFI
B7: T8311-U14T2.G25R-59.uIgG1 (bispecific antibody)
heavy: not shown
light 1: B1 light 1
light 2: B2 light 2 with C116P, A117C, C192P, F196C
notes: also called T8311-59

EC50: 0.22 nM
Top (MFI): 8150 MFI
B8: T8311-U14T2.G25R-53.uIgG1 (bispecific antibody)
heavy: not shown
light 1: B1 light 1
light 2: B2 light 2 with C116P, Q142C, I190C, C192P
notes: also called T8311-53

EC50: 0.205 nM
Top (MFI): 8120 MFI
B9: T8311-U14T2.G25R-48.uIgG1 (bispecific antibody)
heavy: not shown
light 1: B1 light 1
light 2: B2 light 2 with C116P, S146C, N188C, C192P
notes: also called T8311-48

EC50: 0.177 nM
Top (MFI): 8150 MFI
B10: T8311-U14T2.G25R-57.uIgG1 (bispecific antibody)
heavy: not shown
light 1: B1 light 1
light 2: B2 light 2 with C192P, D194C
notes: also called T8311-57; design 57

EC50: 0.153 nM
Top (MFI): 8130 MFI
B11: T8311-U14T2.G25R-49.uIgG1 (bispecific antibody)
heavy: not shown
light 1: B1 light 1
light 2: B2 light 2 with C116P, K147C, N188C, C192P
notes: also called T8311-49

EC50: 0.179 nM
Top (MFI): 7880 MFI
B12: T8311-U14T2.G25R-61.uIgG1 (bispecific antibody)
heavy: not shown
light 1: B1 light 1
light 2: B2 light 2 with C116P, C192P, P198C
notes: also called T8311-61; Design-61

EC50: 0.213 nM
Top (MFI): 8120 MFI
B13: T8311-U14T2.G25R-51.uIgG1 (bispecific antibody)
heavy: not shown
light 1: B1 light 1
light 2: B2 light 2 with C116P, V143C, S189C, C192P
notes: also called T8311-51

EC50: 0.187 nM
Top (MFI): 8060 MFI
B14: T8311-U14T2.G25R-52.uIgG1 (bispecific antibody)
heavy: not shown
light 1: B1 light 1
light 2: B2 light 2 with C116P, S144C, S189C, C192P
notes: also called T8311-52
